For one test, the target named is T1, AT1R (Homo sapiens, UniProt P30556).
T1 construct: Rluc8; expressed in transfected cells; S391A-RAGE transiently transfected
T1 sequence (P30556 1-359): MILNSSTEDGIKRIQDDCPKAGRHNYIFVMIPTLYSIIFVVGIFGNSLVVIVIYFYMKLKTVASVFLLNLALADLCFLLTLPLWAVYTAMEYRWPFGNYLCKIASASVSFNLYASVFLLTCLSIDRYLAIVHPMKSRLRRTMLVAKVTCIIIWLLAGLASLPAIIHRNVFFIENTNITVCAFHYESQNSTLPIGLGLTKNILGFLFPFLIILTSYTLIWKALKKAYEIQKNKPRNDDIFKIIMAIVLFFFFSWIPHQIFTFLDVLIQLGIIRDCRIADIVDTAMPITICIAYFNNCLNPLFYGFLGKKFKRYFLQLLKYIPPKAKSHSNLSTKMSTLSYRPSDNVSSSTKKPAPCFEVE
In words: Functional competition: Ang II-induced p65/PCNA expression in AT1R-CHO cells transfected with full length mutant S391A-RAGE. It is filed as cell-based. To be noted: for transactivation of the over-expressed cytosolic tail in the presence of S391A-RAGE1-404 (p65): Ang II 1 μM 2 h (FIG. 7A). On the procedure: Adult retinal pigment epithelial (ARPE) cells were cultured in Dulbecco's modified Eagle's medium (DMEM)/F12 endothelial cell growth supplement (ECGS) supplemented media. Chinese Hamster Ovary (CHO) cells were cultured using F12 media (10% FCS with 2 mM glutamine). Human microvascular endothelial cells (HMEC) were cultured in MCDB 131 medium (10% FCS with 10 mM glutamine, EGF and hydrocortisone).
100 ng of AT1R-Rluc8 construct was transfected into CHO cells using Lipofectamine 2000 (Thermo). Stable transfectants were selected using G418. AT1R-CHO were then transiently transfected with the IgSF CAM and/or RAGE constructs using Lipofectamine 2000 (Invitrogen) and incubated for 16h.
After 2 hours of exposure to Ang II (1 μM) cells were placed in Trizol, mRNA extracted and cDNA synthesized. Changes in the gene expression of the NFκB subunit, p65 (RelA) or NFκB-activated target genes (e.g ICAM-1) were estimated by quantitative real-time RT-PCR, performed using the TaqMan system based on real-time detection of accumulated fluorescence (ABI Prism 7700, Perkin-Elmer Inc, PE Biosystems, Foster City, Calif., USA). Gene expression was normalized to 18S mRNA and reported as fold change compared to the level of expression in untreated control mice/cells, which were given an arbitrary value of 1.

Test [1] deals with T2, Rluc8-labelled CADM4 (CADM4/Rluc8) (UniProt Q8NFZ8 21-388).
T2 construct: whole, on cells; not shown: Rluc8, a variant of Renilla luciferase
T2 sequence (looked up): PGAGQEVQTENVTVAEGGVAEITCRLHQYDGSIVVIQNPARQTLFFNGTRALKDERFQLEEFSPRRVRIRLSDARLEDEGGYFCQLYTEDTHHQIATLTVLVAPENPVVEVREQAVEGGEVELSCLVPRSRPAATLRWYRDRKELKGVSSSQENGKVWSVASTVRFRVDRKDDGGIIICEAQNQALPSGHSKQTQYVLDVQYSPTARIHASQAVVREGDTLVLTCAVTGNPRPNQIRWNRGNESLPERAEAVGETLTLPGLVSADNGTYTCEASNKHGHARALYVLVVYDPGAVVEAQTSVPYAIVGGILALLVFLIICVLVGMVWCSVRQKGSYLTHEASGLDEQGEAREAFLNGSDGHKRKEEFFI
In words: BRET saturation assay (FIG. 12D). On the procedure:
(§1) The BRET ratio was calculated by subtracting the ratio of ‘acceptor emission’ over ‘donor emission’ for a cell sample expressing Rluc8-tagged protein alone from the same ratio for a cell sample expressing both Rluc8 and Venus-tagged proteins. Alternatively, the ligand-induced BRET signal was calculated by subtracting the ratio of ‘acceptor emission’ over ‘donor emission’ for a vehicle-treated cell sample from the same ratio for a second aliquot of the same cells treated with agonist.
(§2) For the BRET kinetic assays, the final pre-treatment reading is presented at the zero time point (time of ligand/vehicle addition). For the BRET saturation assays, fluorescence after light excitation was measured on an EnVision 2102 multi-label plate reader (PerkinElmer, Glen Waverley, Victoria, Australia) using a 485/14 excitation filter, 535/25 emission filter and D505 mirror. The fluorescence/luminescence ratio was generated by dividing the fluorescence values in arbitrary units (obtained with the EnVision) by the luminescence values also in arbitrary units (obtained as part of the BRET assay).

In the next test the target is T3, RAGE/Rluc8 (UniProt Q15109 23-404).
T3 construct: whole, on cells; not shown: Rluc8, a variant of Renilla luciferase
The test can be described thus: BRET saturation assay (FIGS. 13A, 13D). As for the experimental part:
as §1, §2

Test [2] deals with T4, untagged RAGE (RAGE cDNA co-transfected) (UniProt Q15109 23-404).
T4 construct: whole, on cells
In words: BRET saturation assay, competition with EpCAM/Rluc8 (FIG. 11D). On the procedure:
as §1, §2

The next test addresses T5, human ALCAM/Rluc8 (human, UniProt Q13740 28-583).
T5 construct: also called ALCAM/Rluc8 (human ALCAM); not shown: Rluc8, a variant of Renilla luciferase
T5 sequence: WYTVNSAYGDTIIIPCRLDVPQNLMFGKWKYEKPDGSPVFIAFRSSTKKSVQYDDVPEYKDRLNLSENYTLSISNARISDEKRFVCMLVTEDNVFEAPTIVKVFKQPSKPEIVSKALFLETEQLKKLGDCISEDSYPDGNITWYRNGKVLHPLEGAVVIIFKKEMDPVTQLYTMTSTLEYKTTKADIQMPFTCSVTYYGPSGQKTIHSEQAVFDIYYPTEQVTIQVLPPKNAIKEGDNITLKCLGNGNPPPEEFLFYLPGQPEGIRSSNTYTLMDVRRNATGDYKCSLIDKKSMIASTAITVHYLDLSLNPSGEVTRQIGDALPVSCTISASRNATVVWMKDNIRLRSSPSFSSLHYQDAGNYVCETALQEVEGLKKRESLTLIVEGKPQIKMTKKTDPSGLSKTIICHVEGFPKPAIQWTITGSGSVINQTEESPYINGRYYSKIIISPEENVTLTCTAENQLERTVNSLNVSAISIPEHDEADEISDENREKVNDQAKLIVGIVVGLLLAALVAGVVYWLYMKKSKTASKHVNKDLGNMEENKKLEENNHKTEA
The test can be described thus: Receptor-HIT BRET: ALCAM/Rluc8 + β-arrestin2/Venus ± untagged AT1, after AngII. As for the experimental part: as §1
(§3) GPCRs untagged with respect to the BRET system were then co-expressed in the HEK293FT cells, or the cells were transfected with pcDNA3 as a control. […] A ligand-induced BRET signal was indicative of recruitment of the BRET-tagged β-arrestin2 proximal to the BRET-tagged CAM, thereby indicating close proximity between the CAM and the activated GPCR.

For a further test, the target named is T6, mouse ALCAM/Rluc8 (mouse, UniProt Q61490 28-583).
T6 construct: also called ALCAM/Rluc8 (mouse ALCAM); not shown: Rluc8, a variant of Renilla luciferase
T6 sequence: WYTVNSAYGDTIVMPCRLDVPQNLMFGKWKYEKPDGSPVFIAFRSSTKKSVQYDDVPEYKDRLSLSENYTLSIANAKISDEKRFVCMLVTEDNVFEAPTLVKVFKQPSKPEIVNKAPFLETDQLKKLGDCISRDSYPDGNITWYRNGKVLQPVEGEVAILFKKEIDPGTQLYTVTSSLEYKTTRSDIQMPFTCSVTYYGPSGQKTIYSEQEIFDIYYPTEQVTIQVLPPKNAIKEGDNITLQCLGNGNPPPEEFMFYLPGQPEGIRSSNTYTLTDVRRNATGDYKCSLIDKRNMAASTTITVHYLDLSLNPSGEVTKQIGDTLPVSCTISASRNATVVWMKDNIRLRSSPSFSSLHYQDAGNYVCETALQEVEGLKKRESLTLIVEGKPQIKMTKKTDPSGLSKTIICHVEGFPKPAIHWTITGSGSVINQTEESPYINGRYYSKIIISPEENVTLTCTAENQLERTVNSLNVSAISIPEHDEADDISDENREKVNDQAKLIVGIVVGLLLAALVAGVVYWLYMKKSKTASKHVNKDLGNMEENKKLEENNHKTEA
The test is described as above. As for the experimental part: as §1, §3

Test [3] addresses T7, Venus-labelled mouse ALCAM (ALCAM/Venus) (mouse, UniProt Q61490 28-583).
T7 construct: also called mouse ALCAM/Venus; not shown: Venus, a variant of green fluorescent protein
T7 sequence: T6 sequence
The test can be described thus: Receptor-HIT BRET: ALCAM/Venus + β-arrestin2/Rluc8 ± untagged AT1, after AngII. On the procedure: as §1, §3

Test [4] addresses T2, Rluc8-labelled CADM4 (CADM4/Rluc8). The test can be described thus: Receptor-HIT BRET: CADM4/Rluc8 + β-arrestin2/Venus ± untagged AT1, after AngII. On the procedure:
as §1, §3

Test [5] concerns the target T8, Venus-labelled CADM4 (CADM4/Venus) (UniProt Q8NFZ8 21-388).
T8 construct: whole, on cells; not shown: Venus, a variant of green fluorescent protein
T8 sequence (looked up): T2 sequence (looked up)
The test can be described thus: Receptor-HIT BRET: CADM4/Venus + β-arrestin2/Rluc8 ± untagged AT1, after AngII. On the procedure:
as §1, §3

T3 sequence (Q15109 23-404): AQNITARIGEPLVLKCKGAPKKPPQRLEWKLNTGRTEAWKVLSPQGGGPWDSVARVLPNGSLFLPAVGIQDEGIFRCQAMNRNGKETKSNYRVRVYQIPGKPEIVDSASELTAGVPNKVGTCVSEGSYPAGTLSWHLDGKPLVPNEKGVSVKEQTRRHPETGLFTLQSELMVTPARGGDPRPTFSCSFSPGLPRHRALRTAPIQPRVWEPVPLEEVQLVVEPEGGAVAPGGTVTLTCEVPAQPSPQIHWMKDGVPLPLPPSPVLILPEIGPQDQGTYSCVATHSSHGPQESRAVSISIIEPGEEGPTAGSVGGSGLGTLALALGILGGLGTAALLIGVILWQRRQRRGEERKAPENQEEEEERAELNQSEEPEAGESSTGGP
T4 sequence (Q15109 23-404): as above

Consider “MKKSKTASKHVNKDLGNMEENKKLEENNHKTEA (Synthetic peptide - Truncated amino acid sequence of human ALCAM protein corresponding to residues 551 to 583 (corresponding to the cytosolic tail of ALCAM)) [ALCAM551-583]”, for which the “transactivation of the over-expressed cytosolic tail in the presence of S391A-RAGE1-404 (p65)” value in the test with AT1R (AT1R-CHO cells) is on record as “able to overcome inhibition of transactivation”.

Take “MSVRQKGSYLTHEASGLDEQGEAREAFLNGSDGHKRKEEFFI [CADM4336-388]”: the “transactivation of the over-expressed cytosolic tail in the presence of S391A-RAGE1-404 (p65)” value with AT1R (AT1R-CHO cells) is listed as “able to overcome inhibition of transactivation”.

In the case of “S391A-RAGE1-404: full length human mutant S391A-RAGE”, the “ability of Ang II to induce p65-NFκB expression after transfection of the mutant” value with AT1R (AT1R-CHO cells, Ang II 1 μM 2 h, vs pCIneo (FIG. 7A)) is reported as “fails to confer the ability of Ang II to induce expression”. For the same molecule, the “transactivation by AT1R as indicated by PCNA expression after transfection of the mutant” value in the test with AT1R (Ang II 1 μM 2 h, vs pCIneo (FIG. 7B)) was “unable to be transactivated”.

B1: Venus-tagged Angiotensin II receptor 1 (AT1/Venus) (receptor, UniProt P30556 1-359, looked up)
chain: T1 sequence (P30556 1-359)
notes: whole, on cells; not shown: Venus, a variant of green fluorescent protein
For B1, the binding result (in test [1]; with RAGE/Rluc8; in test [2]) was “binds” throughout.

B2: AT1 (untagged, co-expressed in HEK293FT cells) (receptor, UniProt P30556 1-359, looked up)
chain: T1 sequence (P30556 1-359)
notes: whole, on cells; Untagged with respect to BRET (Receptor-HIT assays); also called Angiotensin II receptor 1
In the case of B2, the binding result (with human ALCAM/Rluc8; with mouse ALCAM/Rluc8; in [3]; in test [4]; in [5]) was “binds” in each case.
